# Conditions: phosphorylation at S656
substance,measurement,value
synapsin-I: S656A,localisation_or_trafficking,changes

# From PMC2805770
